T1: murine HER4 antigen (mouse, UniProt Q61527 26-652, limits assumed)
T1 construct: In-house antigen coated for ELISA; also called mouse HER4
T1 sequence (looked up): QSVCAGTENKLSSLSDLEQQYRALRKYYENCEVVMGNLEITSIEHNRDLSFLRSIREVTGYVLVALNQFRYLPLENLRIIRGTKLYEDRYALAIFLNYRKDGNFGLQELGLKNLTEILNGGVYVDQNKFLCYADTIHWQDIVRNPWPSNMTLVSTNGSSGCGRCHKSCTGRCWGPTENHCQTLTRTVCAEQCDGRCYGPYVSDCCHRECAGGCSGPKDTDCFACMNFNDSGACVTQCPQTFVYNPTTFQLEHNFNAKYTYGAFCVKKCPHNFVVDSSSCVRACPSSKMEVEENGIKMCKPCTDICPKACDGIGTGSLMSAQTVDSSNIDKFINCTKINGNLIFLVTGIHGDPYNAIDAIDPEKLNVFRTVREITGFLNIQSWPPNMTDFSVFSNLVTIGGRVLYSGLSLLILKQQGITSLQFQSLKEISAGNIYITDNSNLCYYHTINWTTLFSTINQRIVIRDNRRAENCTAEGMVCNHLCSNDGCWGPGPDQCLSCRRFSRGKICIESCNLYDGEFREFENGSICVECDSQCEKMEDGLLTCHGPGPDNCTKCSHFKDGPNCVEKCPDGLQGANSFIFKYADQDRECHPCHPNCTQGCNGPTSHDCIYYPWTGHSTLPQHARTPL

T2: human HER4 antigen (human, UniProt Q15303 26-649, limits assumed)
T2 construct: Antigen coated for ELISA
T2 sequence (looked up): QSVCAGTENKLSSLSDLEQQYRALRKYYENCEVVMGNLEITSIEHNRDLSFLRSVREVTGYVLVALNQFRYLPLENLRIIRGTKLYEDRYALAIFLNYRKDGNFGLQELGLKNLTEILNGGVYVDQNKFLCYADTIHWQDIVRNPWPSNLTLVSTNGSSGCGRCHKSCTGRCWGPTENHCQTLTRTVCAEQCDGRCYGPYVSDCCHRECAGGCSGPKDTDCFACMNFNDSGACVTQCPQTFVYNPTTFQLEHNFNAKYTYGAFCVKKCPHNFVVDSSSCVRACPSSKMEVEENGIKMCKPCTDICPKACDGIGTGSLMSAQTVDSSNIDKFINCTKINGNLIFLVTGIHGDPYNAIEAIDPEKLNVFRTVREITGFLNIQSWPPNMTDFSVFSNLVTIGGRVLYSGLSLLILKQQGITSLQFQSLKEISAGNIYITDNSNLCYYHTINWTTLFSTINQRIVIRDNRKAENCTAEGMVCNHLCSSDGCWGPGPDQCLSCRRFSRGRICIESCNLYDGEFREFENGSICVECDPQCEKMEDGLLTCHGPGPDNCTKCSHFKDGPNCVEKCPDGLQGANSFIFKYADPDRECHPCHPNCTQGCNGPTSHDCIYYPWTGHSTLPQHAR


Columns and labels:
mouse HER3 antigen = biological target: T3, mouse HER3 antigen (mouse, UniProt Q61526 20-641, limits assumed); assay: ELISA, coated mu HER3
T3 construct: In-house antigen coated for ELISA; also called mouse antigen; murine HER3
Protocol: (§1) Antibody-antigen binding was measured by ELISA with coated antigens. Human antigens were obtained from Sino Biologicals. All other antigens were produced in-house by transient expression in CHO or HEK293 cells. Chimeric and humanized antibodies, as well as an isotype control antibody, were incubated with the coated antigens at different concentrations. After wash, bound antibodies were detected by HRP-(horse radish peroxidase)-conjugated secondary antibodies.

mouse HER2 antigen = biological target: T4, mouse HER2 antigen (mouse, UniProt P70424 23-653, limits assumed); assay: ELISA, coated mu HER2
T4 construct: In-house antigen coated for ELISA; also called mouse antigen; murine HER2
Protocol: as §1

mouse EGFR antigen = biological target: T5, mouse EGFR antigen (mouse, UniProt Q01279 25-647, limits assumed); assay: ELISA, coated mu EGFR
T5 construct: In-house antigen coated for ELISA; also called mouse antigen; murine EGFR
Protocol: as §1

[1] = biological target: T6, human HER3 antigen (Sino Biologicals) (human, UniProt P21860 20-643); assay: ELISA, coated hu HER3
T6 construct: Bought soluble antigen; also called human antigen
Protocol: as §1

cynomolgus EGFR antigen = biological target: T7, cynomolgus EGFR antigen (cynomolgus monkey, UniProt A0A2K5WK39 25-645); assay: SPR (ProteOn XPR36), IgG captured by anti-human Fc, soluble monovalent antigen, 1:1 fit
T7 construct: In-house antigen; also called cynomolgus antigen
Protocol: (§2) Kinetic binding analysis of the purified humanized variants was performed on a ProteOn™ XPR36 biosensor (BioRad, USA) employing an IgG capture assay as described by Canziani et al. (Anal. Biochem. (2004) 325:301-307) that allows for measurement of antibody affinities of whole IgG molecules against soluble antigen under monovalent conditions. Briefly, approximately 5000 resonance units (RU) of a monoclonal mouse anti-human IgG Fc antibody (GE Healthcare, Denmark) was conjugated to a GLC chip surface (BioRad, USA) according to the manufacturer's instructions, followed by capture of individual antibodies of the invention or a negative control on the anti-Fc sensor surface. […] Next, 250 μl monovalent antigen (Sino Biologicals) was injected at a flow rate of 50 μl/min in serial threefold dilutions from 100 nM stock to generate response curves. The chip surface was regenerated between cycles by stripping the captured antibody/antigen complexes off the surface with a 10-second injection of 3 M MgCl₂ (GE Healthcare, Denmark) repeated three times. Finally, binding responses were fitted to a Langmuir 1:1 binding model for calculation of the on-rate (kon or ka), off-rate (koff or kd) and affinity (KD) constants using double referencing.

[2] = biological target: T8, human HER2 antigen (Sino Biologicals) (human, UniProt P04626 23-652); assay: ELISA, coated hu HER2
T8 construct: Bought soluble antigen; also called human antigen
Protocol: as §1

murine HER4 antigen = biological target: T1, murine HER4 antigen; assay: ELISA, coated mu HER4
Protocol: as §1

human HER4 antigen = biological target: T2, human HER4 antigen; assay: ELISA, coated hu HER4
Protocol: as §1

cynomolgus HER3 antigen = biological target: T9, cynomolgus HER3 antigen (cynomolgus monkey, UniProt G7PIG5 20-643); assay: ELISA, coated cy HER3
T9 construct: In-house antigen; also called cynomolgus antigen
Protocol: as §1

[3] = biological target: T10, human EGFR antigen (Sino Biologicals) (human, UniProt P00533 25-645); assay: SPR (ProteOn XPR36), IgG captured by anti-human Fc, soluble monovalent antigen, 1:1 fit
T10 construct: Bought soluble antigen; also called human antigen
Protocol: as §2

T4 sequence (P70424 23-653 limits assumed): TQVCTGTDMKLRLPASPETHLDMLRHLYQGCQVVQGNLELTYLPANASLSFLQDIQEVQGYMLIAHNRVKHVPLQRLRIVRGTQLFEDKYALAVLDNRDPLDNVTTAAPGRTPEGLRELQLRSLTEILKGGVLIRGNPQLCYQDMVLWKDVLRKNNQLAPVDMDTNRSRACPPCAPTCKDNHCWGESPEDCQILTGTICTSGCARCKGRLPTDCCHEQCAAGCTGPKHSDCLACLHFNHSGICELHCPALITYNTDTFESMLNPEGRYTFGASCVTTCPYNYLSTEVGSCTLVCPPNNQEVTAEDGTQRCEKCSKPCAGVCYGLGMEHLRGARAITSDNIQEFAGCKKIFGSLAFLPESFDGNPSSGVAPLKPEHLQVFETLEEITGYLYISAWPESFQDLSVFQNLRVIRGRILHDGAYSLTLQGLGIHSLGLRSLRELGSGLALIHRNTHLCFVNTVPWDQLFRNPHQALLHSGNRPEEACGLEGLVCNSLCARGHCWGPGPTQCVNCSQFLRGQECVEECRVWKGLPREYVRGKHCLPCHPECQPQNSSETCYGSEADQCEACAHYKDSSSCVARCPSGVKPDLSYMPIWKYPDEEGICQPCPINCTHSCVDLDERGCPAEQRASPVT
T3 sequence (Q61526 20-641 limits assumed): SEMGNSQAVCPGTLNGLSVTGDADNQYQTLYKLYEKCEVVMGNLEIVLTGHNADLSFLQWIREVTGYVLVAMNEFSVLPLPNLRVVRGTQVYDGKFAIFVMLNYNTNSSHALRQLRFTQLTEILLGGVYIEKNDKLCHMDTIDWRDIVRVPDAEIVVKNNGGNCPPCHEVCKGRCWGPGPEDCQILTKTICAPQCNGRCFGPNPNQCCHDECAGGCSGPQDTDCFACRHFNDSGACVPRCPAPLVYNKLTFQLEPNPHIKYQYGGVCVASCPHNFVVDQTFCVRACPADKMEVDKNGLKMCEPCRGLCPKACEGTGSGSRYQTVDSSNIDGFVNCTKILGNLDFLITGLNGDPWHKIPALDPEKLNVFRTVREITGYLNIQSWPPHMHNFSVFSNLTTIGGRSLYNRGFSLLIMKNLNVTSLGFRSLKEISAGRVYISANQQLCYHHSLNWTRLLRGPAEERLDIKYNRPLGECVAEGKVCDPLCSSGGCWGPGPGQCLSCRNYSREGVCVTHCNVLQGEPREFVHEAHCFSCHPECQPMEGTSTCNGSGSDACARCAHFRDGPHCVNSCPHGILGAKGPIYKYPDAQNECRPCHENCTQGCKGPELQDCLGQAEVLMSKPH
T9 sequence (G7PIG5 entry or part of it): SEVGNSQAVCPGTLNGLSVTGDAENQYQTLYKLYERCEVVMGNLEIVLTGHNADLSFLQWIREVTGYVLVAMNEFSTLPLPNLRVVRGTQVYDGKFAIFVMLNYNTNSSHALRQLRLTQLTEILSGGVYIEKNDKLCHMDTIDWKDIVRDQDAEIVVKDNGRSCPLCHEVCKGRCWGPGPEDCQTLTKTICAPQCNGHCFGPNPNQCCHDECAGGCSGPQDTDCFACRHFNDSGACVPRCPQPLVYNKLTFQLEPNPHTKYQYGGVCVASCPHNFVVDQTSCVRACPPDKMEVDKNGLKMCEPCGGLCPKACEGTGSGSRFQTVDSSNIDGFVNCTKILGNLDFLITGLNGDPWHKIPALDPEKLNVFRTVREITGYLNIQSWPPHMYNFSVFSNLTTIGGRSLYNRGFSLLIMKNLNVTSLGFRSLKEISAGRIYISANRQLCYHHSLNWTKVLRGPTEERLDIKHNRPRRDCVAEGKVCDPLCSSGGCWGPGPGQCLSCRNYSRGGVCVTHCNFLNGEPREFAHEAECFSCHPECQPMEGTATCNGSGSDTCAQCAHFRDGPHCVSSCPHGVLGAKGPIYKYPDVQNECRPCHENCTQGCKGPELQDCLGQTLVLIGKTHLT

binding result (mouse HER3 antigen) | binding result (mouse HER2 antigen) | binding result (mouse EGFR antigen) | binding result [1] | Kd (cynomolgus EGFR antigen) [nM] | binding result [2] | binding result (murine HER4 antigen) | binding result (human HER4 antigen) | binding result (cynomolgus HER3 antigen) | Kd [3] [nM] | koff [3] [s⁻¹] | kon [3] [M⁻¹ s⁻¹] | koff (cynomolgus EGFR antigen) [s⁻¹] | kon (cynomolgus EGFR antigen) [M⁻¹ s⁻¹] | Binder
no binding (tested: 40 nM) | no binding (tested: 40 nM) | no binding (tested: 40 nM) | no binding (tested: 40 nM) | 0.35 | no binding (tested: 40 nM) | no binding (tested: 40 nM) | no binding (tested: 40 nM) | no binding (tested: 40 nM) | – | – | – | – | – | humanized anti-EGFR antibody 10292 (antibody, V domains shown) VH: EVQLVESGGGLVQPGGSLRLSCAASGFAFSYSDMSWVRQAPGKRLEWVSYMSSAGDVTFYSDTVKGRFTISRDNAKNSLYLQVNSLRAEDTAVYYCVRHRDVAMDYWGQGTTVTVSS VL: DIQMTQSPSSLSASVGDRATITCRSSQSLVHSNGNTYLHWYQQKPGKAPKLLIYKVSNRFSGVPSRFSGSGSGTDFTLTISSLQPEDFATYFCSQSTHVPTFGGGTKVEIK
no binding (tested: 40 nM) | no binding (tested: 40 nM) | no binding (tested: 40 nM) | no binding (tested: 40 nM) | 0.56 | no binding (tested: 40 nM) | no binding (tested: 40 nM) | no binding (tested: 40 nM) | no binding (tested: 40 nM) | – | – | – | – | – | humanized anti-EGFR antibody 11294 (antibody, V domains shown) VH: EVQLVESGGGLVQPGGSLRLSCAASGFAFSYSDMSWVRQAPGKRLEWVSYMSSAGDVTFYSDTVKGRFTISRDNAKNSLYLQVNSLRAEDTAVYYCVRHRDVAIDYWGQGTTVTVSS VL: DVVMTQSPLSLPVTLGQPASISCRSSQSLVHSNLNTYLHWYQQRPGQSPRLLIYKVSNRFSGVPDRFSGSGSGTDFTLKISRVEAEDVGVYFCSQSTHVPTFGGGTKVEIK
no binding (tested: 40 nM) | no binding (tested: 40 nM) | no binding (tested: 40 nM) | no binding (tested: 40 nM) | 3.1 | no binding (tested: 40 nM) | no binding (tested: 40 nM) | no binding (tested: 40 nM) | no binding (tested: 40 nM) | – | – | – | – | – | humanized anti-EGFR antibody 10560 (antibody, V domains shown, also called 10550 (misprint in some paragraphs)) VH: QVQLVQSGAEVKKPGASVKLSCKASGYTFTSYWMQWVRQAPGQGLEWIGNINPSNGGTSFNEEFKSRATMTRDTSTSTVYMELSSLRSEDTAVYYCARDGGLYDGYYFDFWGQGTLVTVSS VL: AIQLTQSPSSLSASVGDRVTITCKASQDVDTAVAWYQQKPGKAPKLLIYWASTRHTGVPSRFSGSGSGTDFTLTVSSLQPEDFATYFCQQYSSYPLTFGGGTKVEIK
no binding (tested: 40 nM) | no binding (tested: 40 nM) | no binding (tested: 40 nM) | no binding (tested: 40 nM) | 1.2 | no binding (tested: 40 nM) | no binding (tested: 40 nM) | no binding (tested: 40 nM) | no binding (tested: 40 nM) | – | – | – | – | – | humanized anti-EGFR antibody 11302 (antibody, V domains shown) VH: QVQLVQSGAEVKKPGASVKLSCKASGYTFTSYWMQWVRQAPGQGLEWIGNINPSNLGTSFNEEFKSRATMTRDTSTSTVYMELSSLRSEDTAVYYCARDGGLYDGYYFDFWGQGTLVTVSS VL: AIQLTQSPSSLSASVGDRVTITCKASQDVDTAVAWYQQKPGKAPKLLIYWASTRHTGVPSRFSGSGSGTDFTLTVSSLQPEDFATYFCQQYSSYPLTFGGGTKVEIK
no binding (tested: 40 nM) | no binding (tested: 40 nM) | no binding (tested: 40 nM) | no binding (tested: 40 nM) | 28 | no binding (tested: 40 nM) | no binding (tested: 40 nM) | no binding (tested: 40 nM) | no binding (tested: 40 nM) | 0.35 | 0.00058 | 1.7e+06 | 0.016 | 580000 | chimeric anti-EGFR antibody 1565 (antibody, V domains shown, light chain entry is full length) VH: EVQLQQSGTELVKPGASVILSCKASGYTFTSYWMQWVKQRPGQGLEWIGNINPSNGGTSFNEEFKSRATLTVDKSSSTAYMQLSSLTSEDSAVYYCARDGGLYDGYYFDFWGQGTTLTVS VL: NIVMTQSHKFMSTLIGARVSITCKASQDVDTAVAWYQQKPGQSPKLLIYWASTRHTGVPDRFTGSGSGTDFSLTVSNVQSEDLTDYFCQQYSSYPLTFGAGTKLELKR

— patent US20170165365A1 (SYMPHOGEN A S, published 2017)
